Assay results: patent US20180057604A1

Experiments:
[1] = target: cyno TfR extracellular domain (analogous construct to human TfR ecd) (cynomolgus monkey); assay: SPR, bispecific antibody
[2] = target: human TfR extracellular domain with N-terminal His tag (human) (UniProt P02786); assay: SPR, bispecific antibody
human TfR extracellular domain with N-terminal His tag (human), sequence (P02786 89-760 G142S): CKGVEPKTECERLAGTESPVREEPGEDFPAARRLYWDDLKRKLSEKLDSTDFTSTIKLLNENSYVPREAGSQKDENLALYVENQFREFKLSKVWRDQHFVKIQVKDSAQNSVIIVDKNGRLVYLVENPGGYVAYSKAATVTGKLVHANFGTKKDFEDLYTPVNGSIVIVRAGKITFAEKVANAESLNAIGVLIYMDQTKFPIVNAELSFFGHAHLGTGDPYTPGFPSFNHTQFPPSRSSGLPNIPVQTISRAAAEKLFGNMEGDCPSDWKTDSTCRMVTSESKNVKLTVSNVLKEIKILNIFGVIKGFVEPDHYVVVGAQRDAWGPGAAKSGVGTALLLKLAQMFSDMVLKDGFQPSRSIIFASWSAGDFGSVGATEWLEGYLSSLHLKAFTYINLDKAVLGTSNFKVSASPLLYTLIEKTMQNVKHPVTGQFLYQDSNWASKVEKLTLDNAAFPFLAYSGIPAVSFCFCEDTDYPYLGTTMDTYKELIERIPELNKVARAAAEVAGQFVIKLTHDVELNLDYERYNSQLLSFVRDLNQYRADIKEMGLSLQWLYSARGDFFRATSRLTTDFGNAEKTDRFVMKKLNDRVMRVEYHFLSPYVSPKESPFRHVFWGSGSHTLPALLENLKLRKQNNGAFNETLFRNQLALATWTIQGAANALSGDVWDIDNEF

cyno TfR extracellular domain (analogous construct to human TfR ecd) (cynomolgus monkey), sequence (Q5RDH6 other isoform, or with tags, fused parts or gaps): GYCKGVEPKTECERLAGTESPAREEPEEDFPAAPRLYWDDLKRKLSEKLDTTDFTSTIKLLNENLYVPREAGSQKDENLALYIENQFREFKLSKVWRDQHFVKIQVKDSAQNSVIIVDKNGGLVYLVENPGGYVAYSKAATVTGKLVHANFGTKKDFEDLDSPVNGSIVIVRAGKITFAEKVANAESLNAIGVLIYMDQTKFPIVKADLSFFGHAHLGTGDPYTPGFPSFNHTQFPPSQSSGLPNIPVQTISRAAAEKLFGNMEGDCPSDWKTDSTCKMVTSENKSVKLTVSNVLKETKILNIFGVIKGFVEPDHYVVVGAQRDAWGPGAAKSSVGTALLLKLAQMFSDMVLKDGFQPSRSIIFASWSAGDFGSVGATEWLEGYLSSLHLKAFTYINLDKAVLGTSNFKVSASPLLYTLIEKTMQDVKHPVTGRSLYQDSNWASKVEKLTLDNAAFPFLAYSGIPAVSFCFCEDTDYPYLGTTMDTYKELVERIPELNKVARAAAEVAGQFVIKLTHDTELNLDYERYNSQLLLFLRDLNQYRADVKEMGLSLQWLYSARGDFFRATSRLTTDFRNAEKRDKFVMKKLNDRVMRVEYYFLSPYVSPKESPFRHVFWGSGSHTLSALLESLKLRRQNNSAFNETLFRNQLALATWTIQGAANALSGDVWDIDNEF

B1: anti-TfR^53A/BACE1 bispecific antibody (15G11.T53A arm) (bispecific antibody, part only; not given: anti-BACE1 arm and constant regions, V domains shown, not shown: another chain or arm of the molecule; a dimerising Fc or GST; small tags and cut ends)
VH: EVQLVQSGAEVKKPGASVKVSCKASGYTFTSYWMHWVRQAPGQRLEWIGEINPANGRTNYIEKFKSRATLTVDKSASTAYMELSSLRSEDTAVYYCARGTRAYHYWGQGTMVTVSS
VL: DIQMTQSPSSLSASVGDRVTITCRASDNLYSNLAWYQQKPGKSPKLLVYDATNLADGVPSRFSGSGSGTDYTLTISSLQPEDFATYYCQHFWGTPLTFGQGTKVEIK
Kd [1]: 143 nM
Kd [2]: 24 nM
